Data reported in publication PMC9523049.

Target: Mec1-Ddc2 heterodimer (yeast (endogenous in cultured yeast cells)) (UniProt P38111)
Test: cryo-EM structure; Mec1-Ddc2 complex endogenously purified from yeast cells treated with HU (HU-Dimer1, HU-Dimer2) or MMS (MMS-Dimer)

Substance: Mec1-Ddc2 heterodimer, P38111 1-2368; Q04377 1-747
- stoichiometry N: 2
